Laboratory results as given in patent US20240245800A1, “HIGHLY SPECIFIC RABBIT SINGLE -DOMAIN ANTIBODIES FOR DRUG DELIVERY IN IMMUNOTHERAPY APPLICATIONS” (TECHNOPHAGE, INVESTIGAÇÃO E DESENVOLVIMENTO EM …, priority 2021, published 2024).

T1: Human Topoisomerase I (Homo sapiens, UniProt P11387)
T1 construct: purchased Topogen
T1 sequence (P11387 1-765): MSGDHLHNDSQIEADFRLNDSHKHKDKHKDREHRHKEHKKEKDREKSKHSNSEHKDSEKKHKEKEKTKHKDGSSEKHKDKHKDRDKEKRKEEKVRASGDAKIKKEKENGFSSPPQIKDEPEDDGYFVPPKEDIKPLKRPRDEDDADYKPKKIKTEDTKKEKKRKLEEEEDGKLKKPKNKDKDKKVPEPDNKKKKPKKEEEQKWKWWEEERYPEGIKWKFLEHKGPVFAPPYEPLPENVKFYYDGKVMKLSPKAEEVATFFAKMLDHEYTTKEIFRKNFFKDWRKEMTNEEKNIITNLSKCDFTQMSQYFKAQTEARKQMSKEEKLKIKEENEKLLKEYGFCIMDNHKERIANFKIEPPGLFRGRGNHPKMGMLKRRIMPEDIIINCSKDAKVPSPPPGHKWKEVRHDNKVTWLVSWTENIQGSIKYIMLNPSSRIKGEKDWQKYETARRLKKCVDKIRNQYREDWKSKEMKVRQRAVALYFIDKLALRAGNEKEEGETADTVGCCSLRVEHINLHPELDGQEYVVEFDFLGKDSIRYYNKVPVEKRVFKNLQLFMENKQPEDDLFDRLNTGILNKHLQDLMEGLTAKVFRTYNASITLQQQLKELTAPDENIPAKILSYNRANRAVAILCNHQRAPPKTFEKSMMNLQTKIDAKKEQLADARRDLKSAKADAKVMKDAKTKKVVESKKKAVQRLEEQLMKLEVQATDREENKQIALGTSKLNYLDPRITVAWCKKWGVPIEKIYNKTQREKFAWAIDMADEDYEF


Key:
[1] = target: T1, Human Topoisomerase I; experiment: DNA Topo I activity assay (Human Topoisomerase I Assay Kit); type: biochemical; details: 10 U Topo I, supercoiled DNA, agarose gel
Experimental: FIG. 11—Cytotoxic effects of C5-DAB-SN-38. To determine the effect of C5-DAB-SN-38 on CLBL-1 and Jurkat cells, a cell viability assay was performed using the WST-1 reagent. 6×10^4 cells were seeded and treated with increasing amounts of compound. After 48 h treatment, cell viability was assessed. […] B) On the other hand, ADC had no effect on Jurkat cells, proving the specificity of the ADC. C5 was used as control. Best-fit EC50 values of each formulation were calculated using GraphPad Prism software (version 9.2.0, San Diego, CA, USA) using the log (inhibitor) vs response (variable slope) function. D) Effects of C5-DAB-SN-38 on DNA TopoI activity. To evaluate the effects of C5-DAB-SN-38 on DNA Topo I, we evaluated its activity using the Human Topoisomerase I Assay Kit. After incubation of C5-DAB-SN-38 with 1× reaction buffer and 10 U of Topo I for 1 h at 37° C., the supercoiled DNA was added. To stop the reaction, stop loading buffer was added. DNA TopoI activity was visualized by 1% agarose gel electrophoresis […] with ethidium bromide. Relaxed DNA indicated TopoI activity while supercoiled DNA indicated an inhibition. […] Relaxed DNA and supercoiled DNA were used as positive/negative controls. C5 and SN-38 were also used as controls.
Topo I activity on VL-DAB-SN38 was determined using the Human Topoisomerase I Assay Kit (Topogen, CO, USA) according to the manufacturer's instructions. […]

[2] = system: bEnd.3 cell monolayer; experiment: In vitro BEB model translocation of sdAbs (western blot); type: in vitro ADME, mouse; details: 15 μg sdAb at apex, 90 min, WB
Experimental: FIG. 16A 15 μg of each purified sdAb was added to the apex of the transwell and incubated for 90 min.
FIG. 16B Following incubation period, all volumes were collected from the apex and the base and analysed by WB with anti-HA antibody.
To determine the in vitro BEB translocation efficiency of the selected VL sdAb, 15 μg of each purified antibody was added to the apex of the transwell and incubated for 15 and 90 min. The incubation time and sdAb concentration were selected based on previous optimization assays (data not shown). Following incubation, the cells were washed once with PBS and three times with TB. Evaluation of the translocation efficiency of each VL sdAb was assessed by running […] of the recovered volume from the apex and the base on a 15% SDS-PAGE acrylamide gel followed by WB analysis with HRP-conjugated […] antibody at 1:3000 (Roche). As a positive control, 100 ng of each purified VL sdAb was used. The FC5 VHH was used as a positive control. The same procedure was performed to evaluate the BEB crossing properties of each purified rabbit serum, but the incubation was performed for 15 and 60 min and the detection was performed with goat-α anti-rabbit IgG-Fc specific HRP at 1:10,000. Chemiluminescence was detected using the Chemidoc XRS+System (Bio-rad).

[3] = system: CLBL-1 cell extracts; experiment: ELISA screening of anti-cNHL VL sdAb clones; type: binding, canine; details: clone supernatants, CLBL-1 extracts
Experimental: After the phage display selection, in order to express and select the best anti-cNHL VL sdAbs, phagemid DNA derived from the in vivo output selection was cloned into a PT7-PL vector and transformed into an E. coli strain BL21. Then, individual clones were auto induced, and the supernatant tested in ELISA assays against CLBL-1 and Jurkat cell extracts. To select the best lead candidates, three parameters were evaluated: binding against cNHL, expression yields, and unspecific binding. […] After selection, to characterize the selected clones, the 43 best lead candidates were analysed by sanger sequencing (FIG. 6B). To get further insights of the enriched sequences during the in vivo phage display selection, we performed next generation sequencing (NGS) of the biopanning repertoires. NGS allows massive sequence analysis of the panning population, enabling a genomic assessment of the library diversity and frequency of each clone. Two samples were sequenced: biopanning from the CLBL-1 tumour models and initial immune VL sdAb cNHL library (FIG. 7). Upon bioinformatic analysis of the NGS data, we were able to determine the diversity of each sample and identify the most represented clones. A total of 34880 sequences were obtained for the biopanning from the CLBL-1 tumours. The NHL library obtained a total of 48864 sequences. The number of singletons, consisting of the sequences with a single occurrence, varied between samples, ranging from 76.8% in the library, and 33.3% in the in vivo biopanning from the CLBL-1. Through the comparison of the sequence prevalence between the biopannings and the library, we were able to verify that the number of occurrences in each sequence was higher in the biopanning clones. […] By comparing ELISA data, sanger sequencing and NGS analysis, the six best clones (A12, C8, C5, E1, E2, and B12) were produced and purified. Due to its binding characteristics and production properties, C5 sdAb clone was chosen to be thoroughly characterized and used in the development of the proposed ADC.
To express and select anti-NHL-sdAbs, phagemid DNA encoding selected anti-cNHL sdAbs was cloned into PT7-PL (PT7-peptide leader) vector and transformed into E. coli strain BL21. Individual colonies were inoculated in 100 μl of Super Broth (SB) medium containing Overnight Express™ Autoinduction System (Novagen®) and 100 μg/ml of ampicillin and incubated overnight at 30° C. Next day, 40 μl of BugBuster (Roche) containing anti-protease cocktail-EDTA free inhibitors (Roche) were added and incubated for 30 min at 4° C. Then, plates were centrifuged at 1200 rpm and the supernatant was tested in ELISA assays. Three different conditions were assessed: binding to the sdAbs to the antigen, expression level and unspecific binding. After coating the wells with CLBL-1 cell extracts or Raji cell extracts for 1 h at 37° C., wells were blocked with 3% BSA in PBS. Then, wells were washed with PBS and clones were added and incubated for 1 h, at 37° C. Next, plates were washed and incubated with anti-HA HRP antibody (Roche). Finally, after 1 h incubation, plates were washed and ABTS (Roche) was added and optical density at 405 nm was measured at different time points. To evaluate the expression level, the same protocol was applied, excluding antigen coating.
For unspecific binding, antigen was replaced by 3% BSA. Rabbit sera and anti-CD20 antibody were used as positive controls. BL21 cell extracts were used as negative controls. In the end, the ten best individual clones were sequenced at Eurofins company. Sequence analysis was performed using the Vector Nti software (Invitrogen). The antibody frameworks, CDRs and the amino acid numbering and sequences followed the rules described by Kabat et al. (1991) Sequences of proteins of immunological interest. Bethesda, MD, U.S. Dept. of Health and Human Services, Public Health Service, National Institutes of Health. […]

Row | Molecule | in vitro BEB translocation [2] | ELISA signal against NHL cells [3] | further results
1 | CCc1c2c(nc3ccc(O)cc13)-c1cc3c(c(=O)n1C2)COC(=O)[C@]3(O)CC [SN-38, reference compound] |  |  | effect on DNA Topo I activity [1]: inhibited
2 | RG23: rabbit derived BBB targeting VL sdAb clone, SEQ. ID 44 to 48 series; ^99mTc(CO)3-labelled in Table 1 (antibody, listed as Oryctolagus cuniculus, V domains shown, 99mTc(CO)3 label) VL: ELVMTQTPASVSEPVGGTVTIKCQASQSIGNALAWYQQKPGQPPKLLIYGASNLESGVPSRFKGSGSGTEFTLTISDLECADAATYYCQSYYYSSSSSYGSYAFGGGTEVVVK | increased in vitro BEB-crossing efficiency |  | 
3 | E2: rabbit derived anti-cNHL VL sdAb clone, SEQ. ID. 5 (antibody, listed as Oryctolagus cuniculus, V domains shown) VL: ELDLTQTPPSLSASVGGTVTINCQASESISNYLAWYQQKPGQPPKLLIYGASNLESGVPSRFRGSGSGTEFTLTISDMKAEDAATFYCQSGYYTAGDLTFGAGTNVEIK |  | best results | 
4 | B12: rabbit derived anti-cNHL VL sdAb clone, SEQ. ID. 6 (antibody, listed as Oryctolagus cuniculus, V domains shown) VL: ELVLTQTPASVEAAVGGTVTIKCQASQSIGSYLAWYQQKPGQPPKLLIYGASTLASGVPSRFSGSRSDTQFSLTISDLECADAATYYCQGYYYSDSSSYVNTFGGGTEVVVK |  | best results | 
5 | E1: rabbit derived anti-cNHL VL sdAb clone, SEQ. ID. 4 (antibody, listed as Oryctolagus cuniculus, V domains shown) VL: ELVMTQTPSPVSAAVGGTVTIACQSSQSVYSGTLLSWYQQKPGQSPKLLIHEASTLASGVPSRFKGSGSGTQFTLTISDLECADAATYYCLGGFDDDADNAFGGGTELEIL |  | best results | 
6 | C8: rabbit derived anti-cNHL VL sdAb clone, SEQ. ID. 2 (antibody, listed as Oryctolagus cuniculus, V domains shown) VL: ELVMTQTPSSVSAAVGGTVTINCRASEDIESYLAWYQQKPGQPPKRLIYGASNLASGVSSRFKGSGSGTDFTLTISDLECADAATYYCQCIVGGSTYGNVFGGGTELEIL |  | best results | 
7 | A12: rabbit derived anti-cNHL VL sdAb clone, SEQ. ID. 1 (antibody, listed as Oryctolagus cuniculus, V domains shown) VL: ELVMTQTPSSVSAAVGGTATIDCQSTKSVYNNNALSWYQQKPGQPPKLLIYRASTLTSGVPSRFSGSGSGTQFTLTINDVQCDDAATYYCQGGISGSSDAPFGGGTEVVVK |  | best results | 
8 | RG3: rabbit derived BBB targeting VL sdAb clone, SEQ. ID 44; ^99mTc(CO)3-labelled in Table 1 (antibody, listed as Oryctolagus cuniculus, V domains shown, 99mTc(CO)3 radiolabel) VL: ELVMTQTPSPVSAAMGGTVSISCQSSKSVANNNELSWYQQKPGQPPKLLIYEASKLASGVPSRFKGSGSGTQFTLTISDVQCDDAATYYCLGDYYSSSDNAFGGGTEVVVK | increased in vitro BEB-crossing efficiency |  | 
9 | RG22: rabbit derived BBB targeting VL sdAb clone, SEQ. ID 44 to 48 series; ^99mTc(CO)3-labelled in Table 1 (antibody, listed as Oryctolagus cuniculus, V domains shown, 99mTc(CO)3 label) VL: ELVLTQTPASVEAAVGGTVTINCQASQSVYNNKNLAWYQQKPGQPPKLLIYRASTLASGVPSRFSGSGSGTQFTLTISGAQCDDAATYYCQGEFSCSSGDCIAFGGGTEVVVK | increased in vitro BEB-crossing efficiency |  | 
